Results as given in PMC2894052.

Biological target: recombinant Dnmt1 protein (Dnmt1^R), not treated with a kinase (human) (UniProt P26358)
Chain of UniProt P26358 (P26358 whole entry): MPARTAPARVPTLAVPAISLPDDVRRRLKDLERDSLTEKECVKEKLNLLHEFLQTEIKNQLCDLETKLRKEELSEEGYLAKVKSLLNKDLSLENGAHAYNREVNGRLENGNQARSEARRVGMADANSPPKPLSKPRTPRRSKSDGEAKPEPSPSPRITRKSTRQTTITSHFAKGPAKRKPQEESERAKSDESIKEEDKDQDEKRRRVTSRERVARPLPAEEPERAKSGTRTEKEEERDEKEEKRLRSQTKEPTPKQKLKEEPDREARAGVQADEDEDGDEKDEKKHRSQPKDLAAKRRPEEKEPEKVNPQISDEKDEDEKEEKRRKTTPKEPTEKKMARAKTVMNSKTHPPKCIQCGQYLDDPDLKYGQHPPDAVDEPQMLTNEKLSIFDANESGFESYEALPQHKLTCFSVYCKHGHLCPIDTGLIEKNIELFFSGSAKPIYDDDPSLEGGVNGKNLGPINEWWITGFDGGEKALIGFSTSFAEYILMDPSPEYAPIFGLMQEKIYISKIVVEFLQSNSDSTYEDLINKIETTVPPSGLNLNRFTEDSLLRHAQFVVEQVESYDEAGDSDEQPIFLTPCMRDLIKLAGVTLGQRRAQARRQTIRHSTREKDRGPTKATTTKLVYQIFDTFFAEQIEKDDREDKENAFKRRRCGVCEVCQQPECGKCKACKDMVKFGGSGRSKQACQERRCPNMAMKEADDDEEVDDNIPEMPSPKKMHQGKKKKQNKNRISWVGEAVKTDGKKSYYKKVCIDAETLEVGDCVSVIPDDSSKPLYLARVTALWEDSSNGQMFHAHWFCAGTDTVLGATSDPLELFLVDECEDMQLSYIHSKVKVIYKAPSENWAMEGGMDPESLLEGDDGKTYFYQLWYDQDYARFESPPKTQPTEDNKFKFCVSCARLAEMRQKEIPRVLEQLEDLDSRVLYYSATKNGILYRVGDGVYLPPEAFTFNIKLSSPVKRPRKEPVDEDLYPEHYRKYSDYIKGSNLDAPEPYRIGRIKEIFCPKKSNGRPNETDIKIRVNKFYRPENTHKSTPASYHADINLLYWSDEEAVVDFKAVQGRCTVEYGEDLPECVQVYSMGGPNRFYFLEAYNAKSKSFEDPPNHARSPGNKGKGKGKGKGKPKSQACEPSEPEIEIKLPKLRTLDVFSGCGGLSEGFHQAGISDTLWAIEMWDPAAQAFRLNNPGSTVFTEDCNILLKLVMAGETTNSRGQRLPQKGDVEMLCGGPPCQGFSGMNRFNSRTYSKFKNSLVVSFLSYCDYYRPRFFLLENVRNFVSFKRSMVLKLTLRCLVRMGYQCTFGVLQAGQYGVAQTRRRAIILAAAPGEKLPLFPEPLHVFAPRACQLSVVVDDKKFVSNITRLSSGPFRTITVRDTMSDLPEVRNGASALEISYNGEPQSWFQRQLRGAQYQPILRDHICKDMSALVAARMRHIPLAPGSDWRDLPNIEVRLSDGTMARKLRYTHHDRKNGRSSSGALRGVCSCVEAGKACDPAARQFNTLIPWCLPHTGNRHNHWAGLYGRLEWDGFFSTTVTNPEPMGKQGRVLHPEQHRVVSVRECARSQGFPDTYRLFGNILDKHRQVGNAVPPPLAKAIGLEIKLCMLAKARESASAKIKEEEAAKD

## GST-PCNA (from UniProt P12004 1-261) (natural protein)
  mMTase activity (DMB assay, incorporation of 3H-radiolabelled methyl groups) of Dnmt1 with an equimolar quantity of PCNA, against that of pDnmt1^S127/S143 and pDnmt1^S127: 5 fold

## GST-UHRF1 (from UniProt Q96T88 1-793) (natural protein)
  mMTase activity (DMB assay, incorporation of 3H-radiolabelled methyl groups) of Dnmt1 with an equimolar quantity of UHRF1, against that of pDnmt1^S127/S143 and pDnmt1^S127: 4 fold
